Results on six substances are retold here after the supplement of paper PMC5998384.

For data set [1], the system named is HeLa Kyoto. As to the kind of experiment: thermal stability score vs G1/S (z-score of summed log2 fold changes over temperatures); higher = more thermally stable than in G1/S.
For data set [2], the system named is HeLa Kyoto. As to the kind of experiment: solubility in G1/S (NP-40 vs SDS abundance) (log2 ratio); higher = more soluble. The settings on record: cell cycle stage: G1/S.
Data set [3] deals with HeLa Kyoto. As to the kind of experiment: solubility change mitosis vs G1/S (difference of NP-40 vs SDS log2 ratios) (log2 ratio difference); higher = more soluble in mitosis.
Data set [4] relates to HeLa Kyoto. In words: melting temperature (median over replicates), in situ; higher = more thermally stable.
[5] abbreviates: cell cycle stage: early G1 (4.5 h after nocodazole release).
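Throughout, for melting temperature (median over replicates), in situ: HeLa Kyoto cells synchronized by double thymidine or nocodazole block, proteins quantified by TMT10plex mass spectrometry, three independent biological replicates.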
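Throughout, for solubility change mitosis vs G1/S (difference of NP-40 vs SDS log2 ratios): synchronized HeLa Kyoto cells (double thymidine block for G1/S, nocodazole release for mitosis), protein amounts in NP-40 versus SDS lysates quantified by mass spectrometry, three biological replicates.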
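Throughout, for solubility in G1/S (NP-40 vs SDS abundance): HeLa Kyoto cells arrested at G1/S by double thymidine block, proteins quantified by TMT10plex mass spectrometry in mild NP-40 versus SDS extracts, three biological replicates.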
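Throughout, for thermal stability score vs G1/S (z-score of summed log2 fold changes over temperatures): synchronized HeLa Kyoto cells, proteins quantified by TMT10plex mass spectrometry, three biological replicates, mitosis taken 0.5 h after nocodazole release, G1/S directly after double thymidine block.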

Chain of MTO1 (chain, as listed by the source): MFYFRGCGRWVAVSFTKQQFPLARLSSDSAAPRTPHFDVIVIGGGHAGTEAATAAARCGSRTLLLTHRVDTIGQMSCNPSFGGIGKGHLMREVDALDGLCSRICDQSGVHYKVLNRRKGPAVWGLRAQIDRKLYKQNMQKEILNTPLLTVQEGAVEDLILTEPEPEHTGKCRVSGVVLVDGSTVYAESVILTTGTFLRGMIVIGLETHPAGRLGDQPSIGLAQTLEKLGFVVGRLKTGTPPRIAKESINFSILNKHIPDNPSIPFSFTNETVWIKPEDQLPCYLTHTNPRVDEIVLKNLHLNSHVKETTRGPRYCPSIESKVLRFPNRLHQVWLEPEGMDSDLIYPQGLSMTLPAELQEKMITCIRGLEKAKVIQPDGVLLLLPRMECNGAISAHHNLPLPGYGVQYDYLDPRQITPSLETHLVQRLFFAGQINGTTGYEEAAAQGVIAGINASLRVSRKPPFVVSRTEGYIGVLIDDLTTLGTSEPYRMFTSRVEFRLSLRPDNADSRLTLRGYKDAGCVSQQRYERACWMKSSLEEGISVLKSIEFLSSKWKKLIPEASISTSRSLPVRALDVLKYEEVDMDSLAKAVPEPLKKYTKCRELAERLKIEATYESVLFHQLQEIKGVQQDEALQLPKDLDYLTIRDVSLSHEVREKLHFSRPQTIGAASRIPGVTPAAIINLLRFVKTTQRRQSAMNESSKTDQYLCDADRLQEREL

Turning to “MTNPSDRVLPANSMAESREGDFGCTVMELRKLMELRSRDALTQINVHYGGVQNLCSRLKTSPVEGLSGNPADLEKRRQVFGHNVIPPKKPKTFLELVWEALQDVTLIILEIAAIISLVLSFYRPAGEENELCGQVATTPEDENEAQAGWIEGAAILFSVIIVVLVTAFNDWSKEKQFRGLQCRIEQEQKFSIIRNGQLIQLPVAEIVVGDIAQVKYGDLLPADGILIQGNDLKIDESSLTGESDHVKKSLDKDPMLLSGTHVMEGSGRMVVTAVGVNSQTGIILTLLGVNEDDEGEKKKKGKKQGVPENRNKAKTQDGVALEIQPLNSQEGIDNEEKDKKAVKVPKKEKSVLQGKLTRLAVQIGKAGLLMSALTVFILILYFVIDNFVINRRPWLPECTPIYIQYFVKFFIIGITVLVVAVPEGLPLAVTISLAYSVKKMMKDNNLVRHLDACETMGNATAICSDKTGTLTMNRMTVVQAYIGGIHYRQIPSPDVFLPKVLDLIVNGISINSAYTSKILPPEKEGGLPRQVGNKTECALLGFVTDLKQDYQAVRNEVPEEKLYKVYTFNSVRKSMSTVIRNPNGGFRMYSKGASEIILRKCNRILDRKGEAVPFKNKDRDDMVRTVIEPMACDGLRTICIAYRDFDDTEPSWDNENEILTELTCIAVVGIEDPVRPEVPDAIAKCKQAGITVRMVTGDNINTARAIATKCGILTPGDDFLCLEGKEFNRLIRNEKGEVEQEKLDKIWPKLRVLARSSPTDKHTLVKGIIDSTVGEHRQVVAVTGDGTNDGPALKKADVGFAMGIAGTDVAKEASDIILTDDNFTSIVKAVMWGRNVYDSISKFLQFQLTVNVVAVIVAFTGACITQDSPLKAVQMLWVNLIMDTFASLALATEPPTESLLKRRPYGRNKPLISRTMMKNILGHAFYQLIVIFILVFAGEKFFDIDSGRKAPLHSPPSQHYTIVFNTFVLMQLFNEINSRKIHGEKNVFSGIYRNIIFCSVVLGTFICQIFIVEFGGKPFSCTSLSLSQWLWCLFIGIGELLWGQFISAIPTRSLKFLKEAGHGTTKEEITKDAEGLDEIDHAEMELRRGQILWFRGLNRIQTQIDVINTFQTGASFKGVLRRQNMGQHLDVKLVPSSSYIKVVKAFHSSLHESIQKPYNQKSIHSFMTHPEFAIEEELPRTPLLDEEEEENPDKASKFGTRVLLLDGEVTPYANTNNNAVDCNQVQLPQSDSSLQSLETSV [ATP2B4]”, the thermal stability score in data set [1] (setting [5]) came out at 1.12; in data set [1] (cell cycle stage: mitosis), 0.912. Moreover, the “solubility in G1/S (log2)” value in data set [2] was -0.254. For the same substance, in data set [3], the “solubility change mitosis (log2)” value is -0.0607. For the same substance, the melting temperature in data set [4] (cell cycle stage: G1/S) is 54.7 °C; in data set [4] (cell cycle stage: mitosis) it was 54.9 °C.
For the substance MTO1, the figures for the thermal stability score in data set [1] (setting [5]) and in data set [1] (cell cycle stage: mitosis) were -0.222 and 1.63, respectively. The “solubility in G1/S (log2)” value in data set [2] was -0.108. Besides, the “solubility change mitosis (log2)” value in data set [3] was -0.0427. Also, the melting temperature came out at 50 °C in data set [4] (cell cycle stage: G1/S) and 50.4 °C in data set [4] (cell cycle stage: mitosis).
Regarding “MTPEFDEEVVFENSPLYQYLQDLGHTDFEICSSLSPKTEKCTTEGQQKPPTRVLPKQGILLKVAETIKSWIFFSQCNKKDDLLHKLDIGFRLDSLHTILQQEVLLQEDVELIELLDPSILSAGQSQQQENGHLPTLCSLATPNIWDLSMLFAFISLLVMLPTWWIVSSWLVWGVILFVYLVIRALRLWRTAKLQVTLKKYSVHLEDMATNSRAFTNLVRKALRLIQETEVISRGFTLVSAACPFNKAGQHPSQHLIGLRKAVYRTLRANFQAARLATLYMLKNYPLNSESDNVTNYICVVPFKELGLGLSEEQISEEEAHNFTDGFSLPALKVLFQLWVAQSSEFFRRLALLLSTANSPPGPLLTPALLPHRILSDVTQGLPHAHSACLEELKRSYEFYRYFETQHQSVPQCLSKTQQKSRELNNVHTAVRSLQLHLKALLNEVIILEDELEKLVCTKETQELVSEAYPILEQKLKLIQPHVQASNNCWEEAISQVDKLLRRNTDKKGKPEIACENPHCTVVPLKQPTLHIADKDPIPEEQELEAYVDDIDIDSDFRKDDFYYLSQEDKERQKREHEESKRVLQELKSVLGFKASEAERQKWKQLLFSDHAVLKSLSPVDPVEPISNSEPSMNSDMGKVSKNDTEEESNKSATTDNEISRTEYLCENSLEGKNKDNSSNEVFPQGAEERMCYQCESEDEPQADGSGLTTAPPTPRDSLQPSIKQRLARLQLSPDFTFTAGLAAEVAARSLSFTTMQEQTFGGEEEEQIIEENKNEIEEK [VEZT]”, the thermal stability score in data set [1] (setting [5]) was -1.08; in data set [1] (cell cycle stage: mitosis), -3.04. The “solubility in G1/S (log2)” value in data set [2] was 0.0301. The “solubility change mitosis (log2)” value in data set [3] is -0.229. For the same substance, the melting temperature was found to be 52.6 °C in data set [4] (cell cycle stage: G1/S) and 52 °C in data set [4] (cell cycle stage: mitosis).
“MTSAAPAKKPYRKAPPEHRELRLEIPGSRLEQEEPLTDAERMKLLQEENEELRRRLASATRRTEALERELEIGQDCLELELGQSREELDKFKDKFRRLQNSYTASQRTNQELEDKLHTLASLSHSWIFAIKKAEMDRKTLDWEIVELTNKLLDAKNTINKLEELNERYRLDCNLAVQLLKCNKSHFRNHKFADLPCELQDMVRKHLHSGQEAASPGPAPSLAPGAVVPTSVIARVLEKPESLLLNSAQSGSAGRPLAEDVFVHVDMSEGVPGDPASPPAPGSPTPQPNGECHSLGTARGSPEEELPLPAFEKLNPYPTPSPPHPLYPGRRVIEFSEDKVRIPRNSPLPNCTYATRQAISLSLVEEGSERARPSPVPSTPASAQASPHHQPSPAPLTLSAPASSASSEEDLLVSWQRAFVDRTPPPAAVAQRTAFGRDALPELQRHFAHSPADRDEVVQAPSARPEESELLLPTEPDSGFPREEEELNLPISPEEERQSLLPINRGTEEGPGTSHTEGRAWPLPSSSRPQRSPKRMGVHHLHRKDSLTQAQEQGNLLN [TJAP1]”: the thermal stability score was determined as 1.77 in data set [1] (setting [5]) and 3.57 in data set [1] (cell cycle stage: mitosis). For the same substance, the “solubility in G1/S (log2)” value in data set [2] is 0.288. Further, the “solubility change mitosis (log2)” value in data set [3] is -0.036. Further, the melting temperature in data set [4] (cell cycle stage: G1/S) came out at 51.1 °C; in data set [4] (cell cycle stage: mitosis), 51.7 °C.
On to “MTSIIKLTTLSGVQEESALCYLLQVDEFRFLLDCGWDEHFSMDIIDSLRKHVHQIDAVLLSHPDPLHLGALPYAVGKLGLNCAIYATIPVYKMGQMFMYDLYQSRHNTEDFTLFTLDDVDAAFDKIQQLKFSQIVNLKGKGHGLSITPLPAGHMIGGTIWKIVKDGEEEIVYAVDFNHKREIHLNGCSLEMLSRPSLLITDSFNATYVQPRRKQRDEQLLTNVLETLRGDGNVLIAVDTAGRVLELAQLLDQIWRTKDAGLGVYSLALLNNVSYNVVEFSKSQVEWMSDKLMRCFEDKRNNPFQFRHLSLCHGLSDLARVPSPKVVLASQPDLECGFSRDLFIQWCQDPKNSIILTYRTTPGTLARFLIDNPSEKITEIELRKRVKLEGKELEEYLEKEKLKKEAAKKLEQSKEADIDSSDESDIEEDIDQPSAHKTKHDLMMKGEGSRKGSFFKQAKKSYPMFPAPEERIKWDEYGEIIKPEDFLVPELQATEEEKSKLESGLTNGDEPMDQDLSDVPTKCISTTESIEIKARVTYIDYEGRSDGDSIKKIINQMKPRQLIIVHGPPEASQDLAECCRAFGGKDIKVYMPKLHETVDATSETHIYQVRLKDSLVSSLQFCKAKDAELAWIDGVLDMRVSKVDTGVILEEGELKDDGEDSEMQVEAPSDSSVIAQQKAMKSLFGDDEKETGEESEIIPTLEPLPPHEVPGHQSVFMNEPRLSDFKQVLLREGIQAEFVGGVLVCNNQVAVRRTETGRIGLEGCLCQDFYRIRDLLYEQYAIV [CPSF2]”, for which the thermal stability score in data set [1] (setting [5]) is -0.0481; in data set [1] (cell cycle stage: mitosis), 1.62. In data set [2], the “solubility in G1/S (log2)” value is -0.409. Also, the “solubility change mitosis (log2)” value in data set [3] was 0.0805. Moreover, the melting temperature came out at 48.7 °C in data set [4] (cell cycle stage: G1/S) and 50.3 °C in data set [4] (cell cycle stage: mitosis).
“MTSLTQRSSGLVQRRTEASRNAADKERAAGGGAGSSEDDAQSRRDEQDDDDKGDSKETRLTLMEEVLLLGLKDREGYTSFWNDCISSGLRGCMLIELALRGRLQLEACGMRRKSLLTRKVICKSDAPTGDVLLDEALKHVKETQPPETVQNWIELLSGETWNPLKLHYQLRNVRERLAKNLVEKGVLTTEKQNFLLFDMTTHPLTNNNIKQRLIKKVQEAVLDKWVNDPHRMDRRLLALIYLAHASDVLENAFAPLLDEQYDLATKRVRQLLDLDPEVECLKANTNEVLWAVVAAFTK [GOLPH3]”: the thermal stability score in data set [1] (setting [5]) was 0.551; in data set [1] (cell cycle stage: mitosis) it was -0.641. Besides, the “solubility in G1/S (log2)” value in data set [2] worked out at 0.434. In addition, the “solubility change mitosis (log2)” value in data set [3] was -0.137. Further, the melting temperature was determined as 51.9 °C in data set [4] (cell cycle stage: G1/S) and 51.5 °C in data set [4] (cell cycle stage: mitosis).
